Results reported in publication doi:10.1101/2020.08.10.245050, “Crystal structures of Arabidopsis and Physcomitrella CR4 reveal the molecular architecture of CRINKLY4 receptor kinases” (bioRxiv, 2020).
Where two headings read alike, the source gives them in different places. Where no end group is shown, it is not given here. [ ]: non-standard residue; d: D form. Hyp = O=C(O)[C@@H]1C[C@@H](O)CN1

Key:
[1] = molecular target: T1, biotinylated LRR ectodomain of BARELY ANY MERISTEM 1 (BAM1, residues 20 - 637) with Avi-tag (Arabidopsis (printed as AtBAM1), UniProt O49545 20-637, biotin (BirA biotinylation))
T1 chain: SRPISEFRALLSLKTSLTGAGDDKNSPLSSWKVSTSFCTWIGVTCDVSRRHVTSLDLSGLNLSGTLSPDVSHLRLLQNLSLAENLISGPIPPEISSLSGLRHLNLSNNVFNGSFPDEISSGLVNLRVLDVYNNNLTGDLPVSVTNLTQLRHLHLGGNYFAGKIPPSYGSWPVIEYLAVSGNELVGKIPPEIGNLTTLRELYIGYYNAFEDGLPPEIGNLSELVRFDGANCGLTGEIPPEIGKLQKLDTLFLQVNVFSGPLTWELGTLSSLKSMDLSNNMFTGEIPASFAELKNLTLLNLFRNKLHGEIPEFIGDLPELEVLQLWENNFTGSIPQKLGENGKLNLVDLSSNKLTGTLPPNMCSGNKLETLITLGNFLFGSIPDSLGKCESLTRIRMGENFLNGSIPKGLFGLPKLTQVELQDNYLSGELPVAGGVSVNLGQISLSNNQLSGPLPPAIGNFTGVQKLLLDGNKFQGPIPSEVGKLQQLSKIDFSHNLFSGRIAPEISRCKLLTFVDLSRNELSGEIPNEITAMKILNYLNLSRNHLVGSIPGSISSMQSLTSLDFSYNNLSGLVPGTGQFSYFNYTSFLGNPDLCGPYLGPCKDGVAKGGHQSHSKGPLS

[2] = molecular target: T1, biotinylated LRR ectodomain of BARELY …
[3] = molecular target: T2, biotinylated LRR ectodomain of BARELY ANY MERISTEM 1 (BAM1, residues 20 - 637) with Avi-tag (Arabidopsis (printed as AtBAM1), UniProt O49545 20-637, biotin (BirA biotinylation)); experiment: grating-coupled interferometry (GCI); Creoptix WAVE, 4PCP chip; biotinylated ectodomain captured on immobilised streptavidin; CLE40 peptide as analyte, 1:2 dilution series from 10 µM; 25 °C; 20 mM citrate pH 5.0, 250 mM NaCl, 0.01 % Tween 20; mass transport binding model; triplicates; details: both partners purified
T2 construct: BAM1 (AtBAM1) LRR ectodomain, residues 20-637, synthetic gene (Geneart), secreted with the Drosophila melanogaster BiP signal peptide; The sentence on the vector most likely means that the non-cleavable Avi-tag is C-terminal as well; also called AtBAM1^LRR; BAM1^LRR; source: biotinylated with BirA; not shown: StrepII, C-terminal, cleaved; 10x His, C-terminal, cleaved
T2 sequence (looked up): T1 chain

koff [1]: 2.4 s⁻¹
Kd [2]: 697 nM
Kd [3]: ~1000 nM
B1: CLAVATA3/ESR-RELATED 40 (CLE40) peptide (peptide)
peptide: RQV[Hyp]TGSDPLHH
notes: the P at position 4 is hydroxyproline; also called synthetic CLE40 peptide; source: synthetic peptide (Peptide Specialty Labs GmbH)
